# Laboratory results reported in US20240408238.
# B1: Nme2Cas9 (recombinant, purified; Neisseria meningitidis strain De11444) (protein)
# chain: PKKKRKVNAMAAFKPNPINYILGLDIGIASVGWAMVEIDEEENPIRLIDLGVRVFERAEVPKTGDSLAMARRLARSVRRLTRRRAHRLLRARRLLKREGVLQAADFDENGLIKSLPNTPWQLRAAALDRKLTPLEWSAVLLHLIKHRGYLSQRKNEGETADKELGALLKGVANNAHALQTGDFRTPAELALNKFEKESGHIRNQRGDYSHTFSRKDLQAELILLFEKQKEFGNPHVSGGLKEGIETLLMTQRPALSGDAVQKMLGHCTFEPAEPKAAKNTYTAERFIWLTKLNNLRILEQGSERPLTDTERATLMDEPYRKSKLTYAQARKLLGLEDTAFFKGLRYGKDNAEASTLMEMKAYHAISRALEKEGLKDKKSPLNLSSELQDEIGTAFSLFKTDEDITGRLKDRVQPEILEALLKHISFDKFVQISLKALRRIVPLMEQGKRYDEACAEIYGDHYGKKNTEEKIYLPPIPADEIRNPVVLRALSQARKVINGVVRRYGSPARIHIETAREVGKSFKDRKEIEKRQEENRKDREKAAAKFREYFPNFVGEPKSKDILKLRLYEQQHGKCLYSGKEINLVRLNEKGYVEIDHALPFSRTWDDSFNNKVLVLGSENQNKGNQTPYEYFNGKDNSREWQEFKARVETSRFPRSKKQRILLQKFDEDGFKECNLNDTRYVNRFLCQFVADHILLTGKGKRRVFASNGQITNLLRGFWGLRKVRAENDRHHALDAVVVACSTVAMQQKITRFVRYKEMNAFDGKTIDKETGKVLHQKTHFPQPWEFFAQEVMIRVFGKPDGKPEFEEADTPEKLRTLLAEKLSSRPEAVHEYVTPLFVSRAPNRKMSGAHKDTLRSAKRFVKHNEKISVKRVWLTEIKLADLENMVNYKNGREIELYEALKARLEAYGGNAKQAFDPKDNPFYKKGGQLVKAVRVEKTQESGVLLNKKNAYTIADNGDMVRVDVFCKVDKKGKNQYFIVPIYAWQVAENILPDIDCKGYRIDDSYTFCFSLHKYDLIAFQKDEKSKVEFAYYINCDSSNGRFYLAWHDKGSKEQQFRISTQNLVLIQKYQVNELGKEIRPCRLKKRPPVRGGGGSGGGGSGGGGSPAAKKKKLDGGGSKRPAATKKAGQAKKKK
# B2: Nme1Cas9 (Cas9 of Neisseria meningitidis strain 8013) (protein)
# chain: MAAFKPNSINYILGLDIGIASVGWAMVEIDEEENPIRLIDLGVRVFERAEVPKTGDSLAMARRLARSVRRLTRRRAHRLLRTRRLLKREGVLQAANFDENGLIKSLPNTPWQLRAAALDRKLTPLEWSAVLLHLIKHRGYLSQRKNEGETADKELGALLKGVAGNAHALQTGDFRTPAELALNKFEKESGHIRNQRSDYSHTFSRKDLQAELILLFEKQKEFGNPHVSGGLKEGIETLLMTQRPALSGDAVQKMLGHCTFEPAEPKAAKNTYTAERFIWLTKLNNLRILEQGSERPLTDTERATLMDEPYRKSKLTYAQARKLLGLEDTAFFKGLRYGKDNAEASTLMEMKAYHAISRALEKEGLKDKKSPLNLSPELQDEIGTAFSLFKTDEDITGRLKDRIQPEILEALLKHISFDKFVQISLKALRRIVPLMEQGKRYDEACAEIYGDHYGKKNTEEKIYLPPIPADEIRNPVVLRALSQARKVINGVVRRYGSPARIHIETAREVGKSFKDRKEIEKRQEENRKDREKAAAKFREYFPNFVGEPKSKDILKLRLYEQQHGKCLYSGKEINLGRLNEKGYVEIDHALPFSRTWDDSFNNKVLVLGSENQNKGNQTPYEYFNGKDNSREWQEFKARVETSRFPRSKKQRILLQKFDEDGFKERNLNDTRYVNRFLCQFVADRMRLTGKGKKRVFASNGQITNLLRGFWGLRKVRAENDRHHALDAVVVACSTVAMQQKITRFVRYKEMNAFDGKTIDKETGEVLHQKTHFPQPWEFFAQEVMIRVFGKPDGKPEFEEADTLEKLRTLLAEKLSSRPEAVHEYVTPLFVSRAPNRKMSGQGHMETVKSAKRLDEGVSVLRVPLTQLKLKDLEKMVNREREPKLYEALKARLEAHKDDPAKAFAEPFYKYDKAGNRTQQVKAVRVEQVQKTGVWVRNHNGIADNATMVRVDVFEKGDKYYLVPIYSWQVAKGILPDRAVVQGKDEEDWQLIDDSFNFKFSLHPNDLVEVITKKARMFGYFASCHRGTGNINIRIHDLDHKIGKNGILEGIGVKTALSFQKYQIDELGKEIRPCRLKKRPPVR
Protein,in vitro DNA cleavage by Cas9:sgRNA in the presence of Acr (10:1 Acr:Cas9 molar ratio) (AcrIIC2Nme),in vitro DNA cleavage by Cas9:sgRNA in the presence of Acr (10:1 Acr:Cas9 molar ratio) (AcrIIC4Hpa),in vitro DNA cleavage by Cas9:sgRNA in the presence of Acr (10:1 Acr:Cas9 molar ratio) (AcrIIC1Nme),in vitro DNA cleavage by Cas9:sgRNA in the presence of Acr (10:1 Acr:Cas9 molar ratio) (AcrIIC3Nme),in vitro DNA cleavage by Cas9:sgRNA in the presence of Acr (10:1 Acr:Cas9 molar ratio) (AcrIIC5Smu),in vitro DNA cleavage by Cas9:sgRNA in the presence of Acr (10:1 Acr:Cas9 molar ratio) (AcrE2)
B1,completely inhibited Nme2Cas9,completely inhibited Nme2Cas9,completely inhibited Nme2Cas9,completely inhibited Nme2Cas9,did not inhibit Nme2Cas9 in vitro even at a 10-fold molar excess,–
B2,all 5 families inhibited Nme1Cas9,all 5 families inhibited Nme1Cas9,all 5 families inhibited Nme1Cas9,all 5 families inhibited Nme1Cas9,all 5 families inhibited Nme1Cas9,AcrE2 failed to do so
